Ends that are not written are not given here. * marks the point of attachment. FITC = O=C1OC2(c3ccc(O)cc3Oc3cc(O)ccc32)c2ccc(NC(=S)*)cc21
What was measured:
Details in all cases: both partners purified
[1] = target: T1, hHsp70-C17/C574/C603 (hHsp70 C267S/C306S), untreated control (human, UniProt P0DMV8 1-641, C267S | C306S); experiment: fluorescence polarisation; steady state; increasing concentrations of Hsp70 with 20 nM FAR peptide, 60-min incubation, RT, buffer B (50 mM Tris-HCl pH 7.5, 100 mM KCl, 5 mM MgCl2); single site-binding model
T1 construct: human HspA1A (hHsp70), UniProtKB P0DMV8, full length with C267S/C306S; also called unmodified form

[2] = target: T2, disulfide-bonded hHsp70-C17/C574/C603 (human, UniProt P0DMV8 1-641, C267S | C306S, intramolecular disulfide bond between Cys574 and Cys603); experiment: as above
T2 construct: human HspA1A (hHsp70), UniProtKB P0DMV8, full length with C267S/C306S; also called -S-S-; disulfide-bonded form of full length hHsp70

WT hHsp70 (human HspA1A) = target: T3, WT hHsp70 (human HspA1A) (human, UniProt P0DMV8 1-641); experiment: fluorescence polarisation; kinetic; 20 nM FAR mixed with 10 μM hHsp70 in the presence of 1 mM ADP, RT, FP recorded against time; diamide or diamide with GSH added at 60 min, DTT at 120 min
T3 construct: human HspA1A (hHsp70), UniProtKB P0DMV8, full length; also called HspA1A/B; human inducible Hsp70

Measured: binding result

T1 sequence (P0DMV8 whole entry C267S/C306S): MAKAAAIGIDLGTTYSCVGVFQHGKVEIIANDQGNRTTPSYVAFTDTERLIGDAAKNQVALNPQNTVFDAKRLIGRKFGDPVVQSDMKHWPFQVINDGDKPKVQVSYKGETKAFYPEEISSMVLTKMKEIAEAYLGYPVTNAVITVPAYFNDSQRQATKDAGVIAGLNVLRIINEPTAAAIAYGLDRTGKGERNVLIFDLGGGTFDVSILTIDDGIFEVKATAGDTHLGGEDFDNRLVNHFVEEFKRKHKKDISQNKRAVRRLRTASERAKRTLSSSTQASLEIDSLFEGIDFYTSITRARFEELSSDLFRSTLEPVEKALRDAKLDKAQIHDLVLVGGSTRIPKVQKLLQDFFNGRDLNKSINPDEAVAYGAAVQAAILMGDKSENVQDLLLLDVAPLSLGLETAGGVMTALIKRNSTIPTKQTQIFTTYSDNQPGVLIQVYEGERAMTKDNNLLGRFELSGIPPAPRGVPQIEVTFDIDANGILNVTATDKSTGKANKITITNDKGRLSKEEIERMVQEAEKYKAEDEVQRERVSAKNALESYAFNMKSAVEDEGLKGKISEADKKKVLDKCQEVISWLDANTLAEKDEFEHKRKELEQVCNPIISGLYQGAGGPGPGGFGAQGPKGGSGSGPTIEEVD
T2 sequence (P0DMV8 whole entry C267S/C306S): as above
T3 sequence (P0DMV8 whole entry): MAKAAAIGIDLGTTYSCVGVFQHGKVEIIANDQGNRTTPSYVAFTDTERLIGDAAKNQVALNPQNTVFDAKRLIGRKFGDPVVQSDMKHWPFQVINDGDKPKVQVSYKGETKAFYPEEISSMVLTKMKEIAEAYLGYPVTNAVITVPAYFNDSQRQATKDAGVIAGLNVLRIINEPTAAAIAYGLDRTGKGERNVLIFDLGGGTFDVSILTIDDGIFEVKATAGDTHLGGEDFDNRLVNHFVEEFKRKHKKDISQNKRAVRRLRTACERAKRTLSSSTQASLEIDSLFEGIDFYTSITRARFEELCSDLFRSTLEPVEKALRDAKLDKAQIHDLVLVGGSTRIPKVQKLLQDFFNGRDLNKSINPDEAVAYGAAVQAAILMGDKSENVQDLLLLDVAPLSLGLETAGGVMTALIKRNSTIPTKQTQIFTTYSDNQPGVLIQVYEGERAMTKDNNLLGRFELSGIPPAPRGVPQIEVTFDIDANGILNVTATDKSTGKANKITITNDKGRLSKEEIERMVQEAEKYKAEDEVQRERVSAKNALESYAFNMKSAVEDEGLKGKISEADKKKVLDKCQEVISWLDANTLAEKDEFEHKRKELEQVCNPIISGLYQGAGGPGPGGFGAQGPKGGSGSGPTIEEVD

B1: FITC-ALLLSAPRR peptide (peptide)
peptide: {FITC}-ALLLSAPRR
notes: fluorescently labelled model substrate peptide of Hsp70; also called FAR; FAR peptide
binds: all assays above
